Measured values: PMC5626683

Molecular target: GST-MreC from Helicobacter pylori (residues L37-N248), wild type (H. pylori) (UniProt B5Z916)
Experiment: ITC; iTC200, 20 °C; PBP2 (3 μL of 160.4 μM) titrated into the cell with GST-tagged MreC (25 μM)

- Kd: 400 nM
Substance: PBP2 from Helicobacter pylori (residues L38-L588, lacking the TM helix), His6-tagged (domain or fragment)
